In patent publication US20080193431:

Target: T1, Ac-DEVD-CHO
T1 chain: DEVD

B1: caspase-3 (protein)
chain: SGISLDNSYKMDYPEMGLCIIINNKNFHKSTGMTSRSGTDVDAANLRETFRNLKYEVRNKNDLTREEIVELMRDVSKEDHSKRSSFVCVLLSHGEEGIIFGTNGPVDLKKITNFFRGDRCRSLTGKPKLFIIQACRGTELDCGIETDSGVDDDMACHKIPVEADFLYAYSTAPGYYSWRNSKDGSWFIQSLCAMLKQYADKLEFMHILTRVNRKVATEFESFSFDATFHAKKQIPCIVSMLTKELYFYH
In the case of B1, the “enzyme activity (caspase-3 cleavage of PPC, HPLC)” value is reported as “completely blocked the enzyme activity”.
